The test deals with T1, CD58 (UniProt P19256 29-215, limits assumed).
T1 construct: also called naturally occurring CD58
T1 sequence (looked up): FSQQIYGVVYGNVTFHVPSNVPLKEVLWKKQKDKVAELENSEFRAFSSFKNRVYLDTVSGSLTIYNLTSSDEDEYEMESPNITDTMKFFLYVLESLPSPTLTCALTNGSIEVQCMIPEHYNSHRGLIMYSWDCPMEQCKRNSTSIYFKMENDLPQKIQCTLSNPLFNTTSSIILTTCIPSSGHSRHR
Description: not described (screen of a CSR mutant panel).

B1: CD2 extracellular domain with D111H mutation ("CD2 ECD (D111H)") (receptor)
chain: KEITNALETWGALGQDINLDIPSFQMSDDIDDIKWEKTSDKKKIAQFRKEKETFKEKDTYKLFKNGTLKIKHLKTDDQDIYKVSIYHTKGKNVLEKIFDLKIQERVSKPKISWTCINTTLTCEVMNGTDPELNLYQDGKHLKLSQRVITHKWTTSLSAKFKCTAGNKVSKESSVEPVSCPEKGLD
notes: also called CSR CD2z-D111H mutant; mutant CSR
On to B1, for which the binding result is listed as “no binding”.

These data come from patent publication US20220372105A1 (POSEIDA THERAPEUTICS, published 2022).
